According to patent US20240117018A1:

Assays:
Assay in all cases: cell-based or functional assay
[1] = target: 1054_07_TC4_1499 Env pseudovirus (HIV-1)
[2] = target: HIV-16055-2.3 Env pseudovirus (HIV-1)
[3] = target: Q842.d12 Env pseudovirus (HIV-1)
[4] = target: 249M B10 Env pseudovirus (HIV-1)
[5] = target: Ce0682_E4 Env pseudovirus (HIV-1)
[6] = target: CNE58 Env pseudovirus (HIV-1)
[7] = target: HIV-001428-2.42 Env pseudovirus (HIV-1)
[8] = target: 1006_11_C3_1601 Env pseudovirus (HIV-1)
[9] = target: 1394C9G1(Rev-) Env pseudovirus (HIV-1)
[10] = target: AC10.0.29 Env pseudovirus (HIV-1)
[11] = target: 928-28 Env pseudovirus (HIV-1)
[12] = target: CAAN5342.A2 Env pseudovirus (HIV-1)
[13] = target: Du172.17 Env pseudovirus (HIV-1)
[14] = target: Q769.d22 Env pseudovirus (HIV-1)
[15] = target: Ce2010_F5 Env pseudovirus (HIV-1)
[16] = target: Q461.e2 Env pseudovirus (HIV-1)
[17] = target: HIV-0013095-2.11 Env pseudovirus (HIV-1)
[18] = target: 62357_14_D3_4589 Env pseudovirus (HIV-1)
[19] = target: 0260.v5.c36 Env pseudovirus (HIV-1)
[20] = target: MuLV envelope (negative control pseudovirus) (MuLV)
[21] = target: 191955_A11 Env pseudovirus (HIV-1)
[22] = target: THRO4156.18 Env pseudovirus (HIV-1)
[23] = target: ZM53M.PB12 Env pseudovirus (HIV-1)
[24] = target: Q23.17 Env pseudovirus (HIV-1)
[25] = target: CNE53 Env pseudovirus (HIV-1)
[26] = target: 6244_13_B5_4576 Env pseudovirus (HIV-1)
[27] = target: T257-31 Env pseudovirus (HIV-1)
[28] = target: HIV-16845-2.22 Env pseudovirus (HIV-1)
[29] = target: 1056_10_TA11_1826 Env pseudovirus (HIV-1)
[30] = target: WEAU_d15_410_787 Env pseudovirus (HIV-1)
[31] = target: CNE20 Env pseudovirus (HIV-1)
[32] = target: ZM109F.PB4 Env pseudovirus (HIV-1)
[33] = target: REJO4541.67 Env pseudovirus (HIV-1)
[34] = target: BF1266.431a Env pseudovirus (HIV-1)
[35] = target: SC422661.8 Env pseudovirus (HIV-1)

B1: N49P23 (antibody, V domains shown)
VH: QVRLVQSGAGARKTGASMKLSCSTSGYTFTTHHGHFINWVRQARGQGLEWMGWMNPMTGQMNIEGKFQGRVTLTRDIYSDTAYMEMTRLTTGDTGTYYCARGDFGQNYPFHYWGQGSLVIVSS
VL: LSALTQPASVSGSPGQSVTISCSGTNRYLVSWYQQHPDKAPKLIIYDDNKRPSGISDRFSASRPDDTASLTISGLQTGDEATYWCASYERFGGGTRLTVLS
B1 gave an IC50 [1] of 0.272 µg/mL, an IC80 [1] of 1.21 µg/mL and an MPI [1] of 100. For the same binder, the IC50 [2] was greater than 50 µg/mL, the IC80 [2] was greater than 50 µg/mL and the MPI [2] was 17. It also gave an IC50 [3] of 0.007 µg/mL, an IC80 [3] of 0.022 µg/mL and an MPI [3] of 100. It also gave an IC50 [4] greater than 50 µg/mL, an IC80 [4] greater than 50 µg/mL and an MPI [4] of 20. For the same binder, the IC50 [5] was 1.39 µg/mL, the IC80 [5] was greater than 50 µg/mL and the MPI [5] was 76. It also gave an IC50 [6] greater than 50 µg/mL, an IC80 [6] greater than 50 µg/mL and an MPI [6] of 9. For the same binder, the IC50 [7] was 0.036 µg/mL, the IC80 [7] was 0.241 µg/mL and the MPI [7] was 98. It also gave an IC50 [8] of 0.015 µg/mL, an IC80 [8] of 0.054 µg/mL and an MPI [8] of 100. The IC50 [9] was greater than 50 µg/mL, the IC80 [9] was greater than 50 µg/mL and the MPI [9] was 34. It also gave an IC50 [10] greater than 50 µg/mL, an IC80 [10] greater than 50 µg/mL and an MPI [10] of 0. The IC50 [11] was 0.021 µg/mL, the IC80 [11] was 0.122 µg/mL and the MPI [11] was 100. It also gave an IC50 [12] of 0.412 µg/mL, an IC80 [12] of 1.38 µg/mL and an MPI [12] of 100. It also gave an IC50 [13] greater than 50 µg/mL, an IC80 [13] greater than 50 µg/mL and an MPI [13] of 45. It also gave an IC50 [14] of 0.005 µg/mL, an IC80 [14] of 0.025 µg/mL and an MPI [14] of 100. The IC50 [15] was 1.59 µg/mL, the IC80 [15] was 11.6 µg/mL and the MPI [15] was 91. For the same binder, the IC50 [16] was 0.099 µg/mL, the IC80 [16] was 0.464 µg/mL and the MPI [16] was 100. The IC50 [17] was 0.114 µg/mL, the IC80 [17] was 0.899 µg/mL and the MPI [17] was 96. It also gave an IC50 [18] of 0.057 µg/mL, an IC80 [18] of 0.76 µg/mL and an MPI [18] of 95. It also gave an IC50 [19] of 0.261 µg/mL, an IC80 [19] of 0.919 µg/mL and an MPI [19] of 100. It also gave an IC50 [20] greater than 50 µg/mL, an IC80 [20] greater than 50 µg/mL and an MPI [20] of 9. The IC50 [21] was greater than 50 µg/mL, the IC80 [21] was greater than 50 µg/mL and the MPI [21] was 31. It also gave an IC50 [22] of 1.98 µg/mL, an IC80 [22] of 10.7 µg/mL and an MPI [22] of 97. For the same binder, the IC50 [23] was 0.135 µg/mL, the IC80 [23] was 0.651 µg/mL and the MPI [23] was 100. For the same binder, the IC50 [24] was 0.01 µg/mL, the IC80 [24] was 0.046 µg/mL and the MPI [24] was 100. The IC50 [25] was 0.026 µg/mL, the IC80 [25] was 0.095 µg/mL and the MPI [25] was 100. For the same binder, the IC50 [26] was 0.151 µg/mL, the IC80 [26] was 0.57 µg/mL and the MPI [26] was 100. For the same binder, the IC50 [27] was 0.178 µg/mL, the IC80 [27] was 1.17 µg/mL and the MPI [27] was 100. It also gave an IC50 [28] greater than 50 µg/mL, an IC80 [28] greater than 50 µg/mL and an MPI [28] of 20. The IC50 [29] was 0.075 µg/mL, the IC80 [29] was 0.483 µg/mL and the MPI [29] was 100. The IC50 [30] was 0.009 µg/mL, the IC80 [30] was 0.031 µg/mL and the MPI [30] was 100. It also gave an IC50 [31] of 45.4 µg/mL, an IC80 [31] greater than 50 µg/mL and an MPI [31] of 51. For the same binder, the IC50 [32] was 0.039 µg/mL, the IC80 [32] was 0.18 µg/mL and the MPI [32] was 100. For the same binder, the IC50 [33] was 0.008 µg/mL, the IC80 [33] was 0.05 µg/mL and the MPI [33] was 100. It also gave an IC50 [34] of 0.083 µg/mL, an IC80 [34] of 0.44 µg/mL and an MPI [34] of 99. For the same binder, the IC50 [35] was 0.069 µg/mL, the IC80 [35] was 0.245 µg/mL and the MPI [35] was 100.
